1 substance from article doi:10.1101/2024.11.04.618112 can be followed below.

This test deals with His10-pA-Tn5 (recombinant protein A-Tn5 transposase with an N-terminal His10-tag) (Escherichia coli) (UniProt Q46731). Nature of the test: SEC.

For orientation: stoichiometry N means a count of units in the complex or per binding partner. On to “His10-pA-Tn5 (recombinant protein A-Tn5 transposase with an N-terminal His10-tag) (from UniProt Q46731 1-476) (enzyme)”, for which the stoichiometry N is 2.
